Source: publication PMC4593227, “Biochemical effects of mutations in the gene encoding the alpha subunit of eukaryotic initiation factor (eIF) 2B associated with Vanishing White Matter disease” (BMC Medical Genetics, 2015)

B1: His6-myc-tagged wild-type eIF2Bα [human] / myc-tagged eIF2Bγ [not stated] (parent)
chain 1: MDDKELIEYFKSQMKEDPDMASAVAAIRTLLEFLKRDKGETIQGLRANLTSAIETLCGVDSSVAVSSGGELFLRFISLASLEYSDYSKCKKIMIERGELFLRRISLSRNKIADLCHTFIKDGATILTHAYSRVVLRVLEAAVAAKKRFSVYVTESQPDLSGKKMAKALCHLNVPVTVVLDAAVGYIMEKADLVIVGAEGVVENGGIINKIGTNQMAVCAKAQNKPFYVVAESFKFVRLFPLNQQDVPDKFKYKADTLKVAQTGQDLKEEHPWVDYTAPSLITLLFTDLGVLTPSAVSDELIKLYL
chain 2: MEFQAVVMAVGGGSRMTDLTSSIPKPLLPVGNKPLIWYPLNLLERVGFEEVIVVTTRDVQKALCAEFKMKMKPDIVCIPDDADMGTADSLRYIYPKLKTDVLVLSCDLITDVALHEVVDLFRAYDASLAMLMRKGQDSIEPVPGQKGKKKAVEQRDFIGVDSTGKRLLFMANEADLDEELVIKGSILQKHPRIRFHTGLVDAHLYCLKKYIVDFLMENGSITSIRSELIPYLVRKQFSSASSQQGQEEKEEDLKKKELKSLDIYSFIKEANTLNLAPYDACWNACRGDRWEDLSRSQVRCYVHIMKEGLCSRVSTLGLYMEANRQVPKLLSALCPEEPPVHSSAQIVSKHLVGVDSLIGPETQIGEKSSIKRSVIGSSCLIKDRVTITNCLLMNSVTVEEGSNIQGSVICNNAVIEKGADIKDCLIGSGQRIEAKAKRVNEVIVGNDQLMEI
B2: His6-myc-tagged wild-type eIF2Bα [human] / myc-tagged eIF2Bβ [not stated] (parent)
chain 1: B1 chain 1
chain 2: MPGSAAKGSELSERIESFVETLKRGGGPRSSEEMARETLGLLRQIITDHRWSNAGELMELIRREGRRMTAAQPSETTVGNMVRRVLKIIREEYGRLHGRSDESDQQESLHKLLTSGGLNEDFSFHYAQLQSNIIEAINELLVELEGTMENIAAQALEHIHSNEVIMTIGFSRTVEAFLKEAARKRKFHVIVAECAPFCQGHEMAVNLSKAGIETTVMTDAAIFAVMSRVNKVIIGTKTILANGALRAVTGTHTLALAAKHHSTPLIVCAPMFKLSPQFPNEEDSFHKFVAPEEVLPFTEGDILEKVSVHCPVFDYVPPELITLFISNIGGNAPSYIYRLMSELYHPDDHVL

Variants of: B1
Experiment: Ni2+ agarose affinity purification (pull-down), western blot for myc tag, quantified
Details: with myc-tagged eIF2Bγ; HEK293 cell lysates; 3 independent experiments; read off a plot

ratio to parent | Variant
0.95 | chain 1 MDDKELIEYFKSQMKEDPDMASAVAAIRTLLEFLKRDKGETIQGLRANLTSAIETLCGVDSSVAVSSGGELFLRFISLASLEYSDYSKCKKIMIERGELFLRRISLSRNKIADLCHTFIKDGATILTHAYSRVVLRVLEAAVAAKKRFSVYVTESQPDLSGKKMAKALCHLNVPVTVVLDAAVGYIMEKADLVIVGAEGVVENGGIINKIGTNQMAVCAKAQNKPFYVVAESFKFVRLFPLNQQDVPDKFKYKADTLKVAQTGQDLKEEHPWVDYTARSLITLLFTDLGVLTPSAVSDELIKLYL [chain 1 P278R]
1.2 | chain 1 MDDKELIEYFKSQMKEDPDMASAVAAIRTLLEFLKRDKGETIQGLRANLTSAIETLCGVDSSVAVSSGGELFLRFISLASLEYSDYSKCKKIMIERGELFLRRISLSRNKIADLCHTFIKDGATILTHAYSRVVLRVLEAAVAAKKRFSVYVTESQPDLSGKKMAKALCHLNVPVTVVLDAAVGYIMEKADLVIVGAEGVVENGGIIYKIGTNQMAVCAKAQNKPFYVVAESFKFVRLFPLNQQDVPDKFKYKADTLKVAQTGQDLKEEHPWVDYTAPSLITLLFTDLGVLTPSAVSDELIKLYL [chain 1 N208Y]

Variants of: B2
Experiment: as above
Details: with myc-tagged eIF2Bβ; HEK293 cell lysates; 3 independent experiments; read off a plot

ratio to parent | Variant
0.66 | chain 1 MDDKELIEYFKSQMKEDPDMASAVAAIRTLLEFLKRDKGETIQGLRANLTSAIETLCGVDSSVAVSSGGELFLRFISLASLEYSDYSKCKKIMIERGELFLRRISLSRNKIADLCHTFIKDGATILTHAYSRVVLRVLEAAVAAKKRFSVYVTESQPDLSGKKMAKALCHLNVPVTVVLDAAVGYIMEKADLVIVGAEGVVENGGIINKIGTNQMAVCAKAQNKPFYVVAESFKFVRLFPLNQQDVPDKFKYKADTLKVAQTGQDLKEEHPWVDYTARSLITLLFTDLGVLTPSAVSDELIKLYL [chain 1 P278R]
1 | chain 1 MDDKELIEYFKSQMKEDPDMASAVAAIRTLLEFLKRDKGETIQGLRANLTSAIETLCGVDSSVAVSSGGELFLRFISLASLEYSDYSKCKKIMIERGELFLRRISLSRNKIADLCHTFIKDGATILTHAYSRVVLRVLEAAVAAKKRFSVYVTESQPDLSGKKMAKALCHLNVPVTVVLDAAVGYIMEKADLVIVGAEGVVENGGIIYKIGTNQMAVCAKAQNKPFYVVAESFKFVRLFPLNQQDVPDKFKYKADTLKVAQTGQDLKEEHPWVDYTAPSLITLLFTDLGVLTPSAVSDELIKLYL [chain 1 N208Y]
